# Data: paper PMC10917881, “Biochemical characterization of L-asparaginase isoforms from Rhizobium etli—the boosting effect of zinc” (Frontiers in Chemistry, 2024)
# Assays:
# [1] = target: Rhizobium etli L-asparaginase ReAIV (constitutive, thermostable), wild type (Rhizobium etli); test: mass photometry; Refeyn One mass photometer; protein diluted to 20-50 nM; buffers 50 mM Tris-HCl pH 8.0 or 30 mM carbonate pH 9.0; absence or presence of Zn2+ and/or Mg2+; dimer to monomers
# [2] = target: Rhizobium etli L-asparaginase ReAV (inducible, thermolabile), wild type (Rhizobium etli); test: as above
Substance,stoichiometry N [1],stoichiometry N [2]
"Rhizobium etli L-asparaginase ReAIV (constitutive, thermostable), wild type (enzyme)",2,–
"Rhizobium etli L-asparaginase ReAV (inducible, thermolabile), wild type (enzyme)",–,2
